Test results taken from the PETadex activity labels.

B1: unnamed (protein)
chain: MSLDVWEWSTEAGGDIRQWDYLGADNQKWRINDLGNGYHSIISAYNGLSLDVYEWSTSNGGDIRQWDYTGAENQQWAFQPTGTSGGGSTGGGSTSCVSSSDITSSKLSATGASGPYSVRSKGVSNWSASGFGGGTIWYPTNASACGRMPGIAVVPGFLSYESSIRWWGARLASWGYVVITIDTNSIYDQPPSRGRQLSDALDHIIYDSTTRNMVDPNRLGAIGWSMGGGGSIWLANNRPEVKAIIPQAPWYLTTTSTSKPAFYIACESDTVAPTYSHVDDFYRYSTGPKMKIEINNGSHWCANSGNGNEGTLGKAGISWMKRYINGDTRFNQFLCGQENYGSRYDVSDYDYASCP
B2: unnamed (protein)
chain: MKTSRHSTATTTLTRLARLALAAAAVLLSAAAQAQVVIFQENFNSGLGQFTASGTVSTSSGGARMQGCGGGTDGTITSSPISTVGFTNLKLSFDRTTTGLDSGEAGIAEYSVNGSTWTVIESTQSSSGRVTIALPAAAAGQAALRLRFRVNASLSSETYTVDNIPLAGTPGGNSAPGPGGTPYQRGPDPTAASLEASDGPFAVATLTVSSASGYGAGTIYYPTNTEGPFAAIAVVPGYTGTQSSIQWLGPRLASHGFVVITIDTNSLSDNPESRATQLMAALNQLVTLSNTSGHPIYGKVDSNRLGVMGHSMGGGGTLVAARDNPTLKAAIPLAPWYSSTNFSGVTVPTLVVACQSDTVAPVSSHALPMYNSIPSSTDKAYLEISGGDHLCVTTGNGNKAIQGKYVVAWMKRFLDNDTRYSPFLCGAPHQADLSGSAVSEYRDTCPY
B3: unnamed (protein)
chain: MDWPRPRCVRRRTSNGQRRSTTCRGDIPMSTRVTHSRLTLIRCLALAAPLMCLGLAQAQTSPPTSESLNARSGPLSIASENVSRLAARGFGGGTIYYPRTSGRYGLIAISPGFTATESSVAWIGEKLASHGFVAIVINTNSTLDQPSSRARQLRAALDHAISSASSTVRNRIDPSRQAVAGHSMGGGGSLIAAEDDPSLKAAFPLTPWNTSSSFTRVRVPSMIFGADGDTIAPVAVHARPFYGSIPRTTSKAYAELQSATHFAPNVRNEAIGRYGVAWMKRFMDGDTRYSTFLCGSEHDRYNTSLRFDQFQSNCPY
B4: unnamed (protein)
chain: MKTLFKAAVLCGAMLTSLGVLAQANPYQKGPDPTVSNLEAARGSFAVSSTSISGLSATGFGGGSLHYPTAAGSYGLIAVAPPYLAQSSSIAWLGPRLASHGFVVVMIDVNSTLDFPESRSRQQLAAIDYAIAQSARTTSPIYRKVDTTRRGVSGHSMGGGASILTARNAPANIKGAFPLTPWSSDKNFSSLQVPTGYLACESDTVAANADHSLNFYNRMPASTPKGYYELRGESHFCPQSTANNPVIGKYLVAWMKRFVDNDTRFSPFLSGALPNADLSSRRFSALRTSGL
B5: unnamed (protein)
chain: MTEKDTSMKFFQATLSLTVGVLLTTALSGTALAESAYLRGPAPTVASVEAPAGPYQVTSQVMKDPVGYKAGTVFYPSDAQGQSFGLIVVAPGFIETQSWNAWWAQYLASHGFVVINIDTQSTLEFPAARAKEELAALNDVVRRSTQPDSPLFGLVDASRQGAMGHSMGGGATLEIAKANPYLKAIVPMAPFQTSGTDYSKLTVPTLIMACKGDVVATASSHSEPIYKSLSPSLDKAYLEMQGGAGHPCTTSVGTSDKVRTLAGKYGLAWFKRFLDEDTRYSQFLCGIPHGLDMFGKVISGYKGNCPY
B6: unnamed (protein)
chain: MKHFHRFGATLFRGAAIAGPLALLGVAHAQTTAPTSASLNATAGPLSIASSTVSSLAANGFGGGTIYYPTASGRFGVVAISPGFTASQSTIEWLGRRMASHGFVVITIDTITTLDYPDSRATQLRAALDHVINRASTTVRNKVDPARRAVAGHSMGGGGSLIAAQADSTLKAAYPMTPWNITENFSRVRVPTMIIGADGDTIAPVTSHARPFYASIPNTTFKAYGELNNATHFAPNVTNTPIGRYGVAWMKRFVDGDTRYSTFLCGAEQNRYNTSLVFDQYRSNCPY
B7: unnamed (protein)
chain: MFGCYGCTDGSIVSAPISTVGYSDIKVTFTRSSSGLDLGEAGIAEWSANGSTYTVIESSRSVSGAATFNLPSGAAGQSGLRVRFRVDASLSSEYYTVDTITVEGTSSGGGGGGGVQIGPDPTTSTLESSSGGSFSVQYQSVSSLSTSGFDGGRLYYPTTSGQYGGIVLCPGYTASSSSLAWWGERLASWGFIVLIIDTNSAYDQPSSRATQLMAGVAWLKARNNDSGHALYGKLRESDIAVGGHSMGGGGTLIALRDNPSLKTGFAMTPWNSSTNFSGITQPTFILGCESDSVAPNSSHSIPFYNSISSSVKKVYAEVDGASHFCPNSSDAKMGKYGIAWYKRFLDGDTRFQPWLCPSATGGN

What follows are proteins tested on BHET. Conditions: 120 h.

Protein | plate clearing
B1 | not clears the plate
B2 | clears the plate (z > 3 vs empty vector)
B3 | not clears the plate
B4 | not clears the plate
B5 | not clears the plate
B6 | not clears the plate
B7 | not clears the plate
